From patent US4771127A (priority 1985, dated 1988)

Columns and labels:
[1] = system: mice; conditions: mouse, in vivo, ip
[2] = rabbit, in vivo, iv
[3] = system: specific IgG antibody; parameters: species or system rabbits; conditions: rabbit, in vivo

Substance: Tetanus Toxoid
- Toxicity (class) [1]: Nontoxic (key: Nontoxic: a minimum of 50 ug of antigen administered intraperitoneally resulted in no mortality)
- Pyrogenicity (highest dose with rise in body temperature ≤ +0.3° C.) [2]: 50 ug/ml/kg body weight
- Immunogenicity [3]: Immunogenic
